Data reported in paper PMC4223078.
Where a chain is given by its changes, count along the chain named.

Key:
Test in all cases: EMSA
Settings in all cases: 10 nM DNA in 15 mM HEPES pH 7.9, 40 mM KCl, 1 mM EDTA, 0.5% DTT, 5% glycerol, 30 min (incubation temperature not stated); 6% native PAGE in TAE at 4 C, SYBR …
[1] = target: T1, StpA M4T M4T (Salmonella enterica serovar Typhimurium 14028s) (UniProt A0A0F6B5K2)
T1 sequence: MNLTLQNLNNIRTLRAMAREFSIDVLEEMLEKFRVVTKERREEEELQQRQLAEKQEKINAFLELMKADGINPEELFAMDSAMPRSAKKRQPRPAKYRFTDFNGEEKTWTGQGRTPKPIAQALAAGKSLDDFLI

[2] = target: T2, StpA A77D A77D (Salmonella enterica serovar Typhimurium 14028s) (UniProt A0A0F6B5K2)
T2 sequence: T1 sequence with T4M, A77D

[3] = target: T3, StpA T37I T37I (Salmonella enterica serovar Typhimurium 14028s) (UniProt A0A0F6B5K2)
T3 sequence: T1 sequence with T4M, T37I

[4] = target: T4, StpA WT (Salmonella enterica serovar Typhimurium 14028s) (UniProt A0A0F6B5K2)
T4 sequence: T1 sequence with T4M

[5] = target: T5, H-NS (6His) (Salmonella enterica serovar Typhimurium 14028s?) (UniProt A0A0F6B244)
T5 sequence: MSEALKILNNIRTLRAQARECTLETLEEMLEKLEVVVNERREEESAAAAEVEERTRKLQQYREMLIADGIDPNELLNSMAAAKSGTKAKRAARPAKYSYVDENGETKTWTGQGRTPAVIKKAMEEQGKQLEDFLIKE

Measured: binding

CTCTCTCTGCACCAGGATATACGGCAGCGTCCATTCGATAATCACAGTTAGTTATAACAATATTATTACCAACATGTCAGTTATTTAAAGCACAGGCATAAGCTAAATAATCAAATGTTAAAAACATATAAACCCGAGCCCGTAGAATATGACATTAAGCTCATAATAAAAGCTCAACCTGACCGTTAGTACTAACAGCAGAATTACTGAAACAGTAGATTCTATCCTAACGACTTGTATTAGTTATTATAACTTTTCACCCTGTAAGAGAATACACTATTATCATGCC (double strand) [hilA 289 bp fragment]
binds: [1] | [2] | [3] | [4] | [5]
